In patent US20260274985A1 (MYTHIC THERAPEUTICS, published 2026):
Numbering of substitutions follows the chain as printed.

B1: MYT13389 (antibody, V domains shown)
VH: QVQLQQSGSELKKPGASVKVSCKASGYTFTNYGMNWVKQAPGQGLKWMGWINTYTGEPTYTDDFKHRFAFSLDTSVSTAYLQISSLKADDTAVYFCARGGFGSSYWYFDVWGQGSLVTVSS
VL: DIQLTQSPSSLSASVGDRVSITCKASQDVHIAVAWYQQKPGKAPKLLIYSAHYRYTGVPDRFSGSGSGTDFTLTISSLQPEDFAVYYCQQHYITPLTFGAGTKVEIK
notes: Sacituzumab HC-LC pairing variant
B2: MYT13381 (antibody, V domains shown)
VH: B1 VH
VL: B1 VL with A51H, H52S
notes: as for B1
B3: MYT13390 (antibody, V domains shown)
VH: B1 VH with Y32H, H66G
VL: B1 VL with H30S, V33H, H52S, Y53H
notes: as for B1
B4: MYT13384 (antibody, V domains shown)
VH: B1 VH with Y60H, H66G
VL: B1 VL
notes: as for B1
B5: MYT13375 (antibody, V domains shown)
VH: B1 VH with G33H, H66G
VL: B1 VL with A51H, H52S
notes: as for B1
B6: MYT13391 (antibody, V domains shown)
VH: B1 VH with G33H, H66G
VL: B1 VL with H30S, V33H, H52S, Y53H
notes: as for B1
B7: MYT13380 (antibody, V domains shown)
VH: B1 VH with K65H, H66G
VL: B1 VL with A51H, H52S
notes: as for B1
B8: MYT13367 (antibody, V domains shown)
VH: B1 VH with G33H, H66G
VL: B1 VL with V33H, H52S
notes: as for B1
B9: MYT11622 (antibody, V domains shown)
VH: B1 VH with H66G
VL: B1 VL with H30S, H52S, Y53H
notes: Sacituzumab variant, His at LCV position 53 (L2 04)
B10: MYT11632 (antibody, V domains shown)
VH: B1 VH with H66G
VL: B1 VL with H30S, H52S, P95H
notes: Sacituzumab variant, His at LCV position 95 (L3 07)
B11: MYT11631 (antibody, V domains shown)
VH: B1 VH with H66G
VL: B1 VL with H30S, H52S, T94H
notes: Sacituzumab variant, His at LCV position 94 (L3 06)
B12: MYT11629 (antibody, V domains shown)
VH: B1 VH with H66G
VL: B1 VL with H30S, H52S, Y92H
notes: Sacituzumab variant, His at LCV position 92 (L3 04)
B13: MYT11626 (antibody, V domains shown)
VH: B1 VH with H66G
VL: B1 VL with H30S, H52S, Q89H
notes: Sacituzumab variant, His at LCV position 89 (L3 01)
B14: MYT11623 (antibody, V domains shown)
VH: B1 VH with H66G
VL: B1 VL with H30S, H52S, R54H
notes: Sacituzumab variant, His at LCV position 54 (L2 05)
B15: MYT11624 (antibody, V domains shown)
VH: B1 VH with H66G
VL: B1 VL with H30S, H52S, Y55H
notes: Sacituzumab variant, His at LCV position 55 (L2 06)
B16: MYT11627 (antibody, V domains shown)
VH: B1 VH with H66G
VL: B1 VL with H30S, H52S, Q90H
notes: Sacituzumab variant, His at LCV position 90 (L3 02)
B17: MYT11634 (antibody, V domains shown)
VH: B1 VH with H66G
VL: B1 VL with H30S, H52S, T97H
notes: Sacituzumab variant, His at LCV position 97 (L3 09)
B18: MYT11625 (antibody, V domains shown)
VH: B1 VH with H66G
VL: B1 VL with H30S, H52S, T56H
notes: Sacituzumab variant, His at LCV position 56 (L2 07)
B19: MYT11633 (antibody, V domains shown)
VH: B1 VH with H66G
VL: B1 VL with H30S, H52S, L96H
notes: Sacituzumab variant, His at LCV position 96 (L3 08)
B20: MYT11630 (antibody, V domains shown)
VH: B1 VH with H66G
VL: B1 VL with H30S, H52S, I93H
notes: Sacituzumab variant, His at LCV position 93 (L3 05)
B21: MYT11628 (antibody, V domains shown)
VH: B1 VH with H66G
VL: B1 VL with H30S, H52S, H91A
notes: Sacituzumab variant, Ala at LCV position 91 (L3 03; His in the parent)
B22: MYT11756 (antibody, V domains shown)
VH: QVQLQESGPGLVKPSETLSLTCTVSGGSISSYGVHWIRQPPGKGLEWIGVIWTSGVTDYNSALMGRVTISVDTSKNQFSLKLSSVTAADTAVYYCARDGDYDRYTMDYWGQGTLVTVSS
VL: DIVMTQSPDSLAVSLGERATINCRASKSVSTSGYSHMHWYQQKPGQPPKLLIYLASNLESGVPDRFSGSGSGTDFTLTISSLQAEDVAVYYCQHSRELPYTFGQGTKLEIK
notes: hu7E6SVG variant, His at LCV position 36 (L1 13); screened as IgG in Expi293 supernatant
B23: MYT11761 (antibody, V domains shown)
VH: B22 VH
VL: B22 VL with H36Y, S56H
notes: hu7E6SVG variant, His at LCV position 56 (L2 03); screened as IgG in Expi293 supernatant
B24: MYT11759 (antibody, V domains shown)
VH: B22 VH
VL: B22 VL with H36Y, L54H
notes: hu7E6SVG variant, His at LCV position 54 (L2 01); screened as IgG in Expi293 supernatant
B25: MYT11774 (antibody, V domains shown)
VH: B22 VH
VL: B22 VL with H36Y, T101H
notes: hu7E6SVG variant, His at LCV position 101 (L3 09); screened as IgG in Expi293 supernatant
B26: MYT11762 (antibody, V domains shown)
VH: B22 VH
VL: B22 VL with H36Y, N57H
notes: hu7E6SVG variant, His at LCV position 57 (L2 04); screened as IgG in Expi293 supernatant
B27: MYT11767 (antibody, V domains shown)
VH: B22 VH
VL: B22 VL with H36Y, H94A
notes: hu7E6SVG variant, Ala in place of His at LCV position 94 (L3 02); screened as IgG in Expi293 supernatant
B28: MYT11772 (antibody, V domains shown)
VH: B22 VH
VL: B22 VL with H36Y, P99H
notes: hu7E6SVG variant, His at LCV position 99 (L3 07); screened as IgG in Expi293 supernatant
B29: MYT11765 (antibody, V domains shown)
VH: B22 VH
VL: B22 VL with H36Y, S60H
notes: hu7E6SVG variant, His at LCV position 60 (L2 07); screened as IgG in Expi293 supernatant
B30: MYT11764 (antibody, V domains shown)
VH: B22 VH
VL: B22 VL with H36Y, E59H
notes: hu7E6SVG variant, His at LCV position 59 (L2 06); screened as IgG in Expi293 supernatant
B31: MYT11768 (antibody, V domains shown)
VH: B22 VH
VL: B22 VL with H36Y, S95H
notes: hu7E6SVG variant, His at LCV position 95 (L3 03); screened as IgG in Expi293 supernatant
B32: MYT11763 (antibody, V domains shown)
VH: B22 VH
VL: B22 VL with H36Y, L58H
notes: hu7E6SVG variant, His at LCV position 58 (L2 05); screened as IgG in Expi293 supernatant
B33: MYT11771 (antibody, V domains shown)
VH: B22 VH
VL: B22 VL with H36Y, L98H
notes: hu7E6SVG variant, His at LCV position 98 (L3 06); screened as IgG in Expi293 supernatant
B34: MYT11760 (antibody, V domains shown)
VH: B22 VH
VL: B22 VL with H36Y, A55H
notes: hu7E6SVG variant, His at LCV position 55 (L2 02); screened as IgG in Expi293 supernatant
B35: MYT11758 (antibody, V domains shown)
VH: B22 VH
VL: B22 VL with H36Y, H38A
notes: hu7E6SVG variant, Ala in place of His at LCV position 38 (L1 15); screened as IgG in Expi293 supernatant

Target: T1, Human TROP2 Protein, His Tag (Acro Biosystems) (human, UniProt P09758 27-274)
T1 construct: also called TACSTD2; not shown: His tag
T1 sequence (looked up): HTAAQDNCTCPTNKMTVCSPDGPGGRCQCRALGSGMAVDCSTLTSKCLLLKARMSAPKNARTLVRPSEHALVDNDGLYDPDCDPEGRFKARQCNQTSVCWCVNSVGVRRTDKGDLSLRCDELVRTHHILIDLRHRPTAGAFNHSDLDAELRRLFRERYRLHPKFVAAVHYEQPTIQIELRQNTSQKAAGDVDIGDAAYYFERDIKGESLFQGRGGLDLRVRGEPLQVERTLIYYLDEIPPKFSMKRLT
Assay: BLI (Octet) [1/2]

| Binder | binding result |
| --- | --- |
| B1 | binds |
| B2 | binds |
| B3 | binds |
| B4 | binds |
| B5 | binds |
| B6 | binds |
| B7 | binds |
| B8 | binds |

Target: T2, Human TROP2 Protein, His Tag (Acro Biosystems) (human, UniProt P09758 27-274)
T2 construct: Bought protein; not shown: His tag
T2 sequence (looked up): T1 sequence (looked up)
Assay: BLI (Octet)

| Binder | binding result |
| --- | --- |
| B9 | binds |
| B10 | binds |
| B11 | binds |
| B12 | binds |
| B13 | binds |
| B14 | binds |
| B15 | binds |
| B16 | binds |
| B17 | binds |
| B18 | binds |
| B19 | binds |
| B20 | binds |
| B21 | binds |

Target: T3, Human TROP2 Protein, His Tag (Acro Biosystems) (human, UniProt P09758 27-274)
T3 construct: Bought antigen used at 50 nM in the Octet screen; also called TACSTD2; not shown: His tag
T3 sequence (looked up): T1 sequence (looked up)
Assay: BLI (Octet) [2/2]
Experimental: After allowing for four days of protein expression, cell culture supernatants were collected, quantified by SDS-PAGE analysis (DNS), and the pH dependence of the variant was evaluated using biolayer interferometry (BLI) on an Octet RED 96e instrument. Briefly, cell culture supernatants were diluted based on qualitative expression level of the variant determined by visual examination of SDS-PAGE gels, 5 μL of cell culture supernatant was diluted into 195 μL of 1×PBST, pH 7.4 for high expressors, 25 μL of cell culture supernatant was diluted into 175 μL of 1×PBST, pH 7.4 for medium expressors and 100 μL of cell culture supernatant was diluted into 100 μL of 1×PBST, pH 7.4 for low expressors for loading onto the sensor tips. The resulting diluted supernatants were then captured on an anti-human Fc sensor (Forte Bio). A baseline was established using 1×PBST (50 mM Potassium Phosphate Buffer+150 mM NaCl+0.05% Tween 20) pH 7.4, and the sensor was associated with 50 nM of TROP2 (Human TROP2 Protein, His Tag, Acro Biosystems) in 1×PBST pH 7.4 for 120 sec to generate an association curve. In the dissociation phase, the antibody-antigen complex on the sensor was exposed to 1×PBST pH 7.4 or pH 5.4, for 300 sec. Association and dissociation phase curves were examined for the starting ABPC antibody (with no substitutions) and each corresponding antibody variant at pH 5.4 and pH 7.4 to inform on two criteria: a) enhanced dissociation (i.e., higher koff values) at pH 5.4 due to histidine or alanine substitution compared to the starting ABPC, (with no substitutions), and b) reduced dissociation at pH 7.4 (i.e., lower koff values) compared to pH 5.4 in the antibody variant itself and with the starting ABPC (with no substitutions). […] It was also noted that while some mutations obliterated TROP2 binding, others were tolerated with little or n change in TROP2 binding kinetics.

| Binder | binding result |
| --- | --- |
| B22 | binds |
| B23 | binds |
| B24 | binds |
| B25 | binds |
| B26 | binds |
| B27 | binds |
| B28 | binds |
| B29 | binds |
| B30 | binds |
| B31 | no binding (tested: 50 nM) |
| B32 | binds |
| B33 | no binding (tested: 50 nM) |
| B34 | binds |
| B35 | binds |
